Laboratory results published in the supplement of paper PMC10724198.
± gives the standard deviation of the averaged measurements.

Tested on: Saccharomyces cerevisiae
Experiment: protein stability index of tFT-peptide fusion (C-terminal peptide) (PSI (0-1 scale)); higher = more stable (slower turnover)
Conditions: genetic background: wild type; temperature: 30 C
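Note: PSI is a weighted mean of sequencing reads over stability bins, variants kept only with over 10 reads, mCherry proximal and sfGFP distal, peptide attached via GGGS linker.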

Row | Sequence | protein stability index
1 | SYGWYRVRLLDC | 0.57 ± 0.088
2 | SYLWRINVSGCV | 0.6955 ± 0.0013
3 | SYPTRSKSAYSL | 0.652 ± 0.059
4 | SYSSILPPLSSA | 0.686 ± 0.022
5 | SYVLIYAPLSSL | 0.661 ± 0.036
6 | SYVYMIQRANAV | 0.5609 ± 0.004
7 | TAATLVYKQNQK | 0.66 ± 0.12
8 | TAKGSSIMCVKI | 0.729 ± 0.05
9 | TAPPPSQTPPRT | 0.684 ± 0.0076
10 | TAPSGIYFSLPL | 0.66 ± 0.054
11 | TARSTSPHHIPR | 0.835 ± 0.22
12 | TASAGLVAAATI | 0.668 ± 0.034
13 | TCPPAPSTGPST | 0.648 ± 0.0073
14 | TCTIQSEDFHEI | 0.707 ± 0.063
15 | TDNIRIERYKEQ | 0.689 ± 0.064
16 | TDWCPQSCVCSL | 0.647 ± 0.051
17 | TDYSSPKTSLSR | 0.668 ± 0.056
18 | TEEVRVRVQTEL | 0.663 ± 0.035
19 | TESGVCWCRREV | 0.685 ± 0.04
20 | TEVWERGKNVGE | 0.635 ± 0.03
21 | TEWIRGTAVNSS | 0.701 ± 0.023
22 | TEYRRRPNETAM | 0.705 ± 0.037
23 | TFIKMEKKKDGG | 0.663 ± 0.034
24 | TFLMEMVPRLFI | 0.664 ± 0.036
25 | TFLPPTTSPYVL | 0.738 ± 0.052

Row | Sequence | protein stability index
26 | TFPPSAPQSSCS | 0.7041 ± 0.0027
27 | TFPRRCILNIQI | 0.635 ± 0.024
28 | TFQMAYHSRTAV | 0.637 ± 0.13
29 | TFREMPESIGNG | 0.654 ± 0.047
30 | TFSFPSPAPHSC | 0.781 ± 0.033
31 | TFSHRVICTGND | 0.733 ± 0.072
32 | TFSPPLSSPPGP | 0.706 ± 0.032
33 | TGEVSTRVGQRE | 0.66 ± 0.07
34 | TGIDLPHFVSLF | 0.658 ± 0.088
35 | TGKWRSFQAYYY | 0.667 ± 0.039
36 | TGNSPSRTGNGI | 0.647 ± 0.018
37 | TGSKKKKVEIEM | 0.679 ± 0.048
38 | TGSRHDLDGSMK | 0.679 ± 0.017
39 | TGWRFVRSKGGS | 0.741 ± 0.045
40 | THCSGAGPPSPP | 0.689 ± 0.068
41 | THKGAPTCRSAR | 0.6723 ± 0.0037
42 | THLASTESVVRP | 0.69 ± 0.033
43 | THPPATSPPPYP | 0.6631 ± 0.0057
44 | THTPPPSPLTLP | 0.671 ± 0.021
45 | THTTIQKTNQNE | 0.703 ± 0.026
46 | TIASGCTWSPGH | 0.645 ± 0.013
47 | TIDACFHSDWGC | 0.782 ± 0.11
48 | TIELNLPPSVVR | 0.642 ± 0.037
49 | TIGPVRSGHVLA | 0.6807 ± 0.0055
50 | TIIRQRHYAPNL | 0.6771 ± 0.0056

Row | Sequence | protein stability index
51 | TIMRGEPGQSHF | 0.741 ± 0.089
52 | TIPSSSQVPIGG | 0.641 ± 0.021
53 | TKEEDKNEGRRR | 0.662 ± 0.055
54 | TKFSSPPLVRTS | 0.71 ± 0.031
55 | TKKNKLRQKKTE | 0.6457 ± 0.0028
56 | TKLKKKGTKKKR | 0.662 ± 0.018
57 | TKPTRPVSPTHL | 0.693 ± 0.12
58 | TKQSKRKHESRT | 0.671 ± 0.044
59 | TKRLLPPRTVAI | 0.696 ± 0.066
60 | TKRRKKIPENRI | 0.6649 ± 0.0049
61 | TKSPYLTVNETA | 0.686 ± 0.055
62 | TKSRKWEERENQ | 0.682 ± 0.013
63 | TKTKKKTQEGSR | 0.739 ± 0.1
64 | TLFSVGSDAMIV | 0.708 ± 0.041
65 | TLFTRRSIMKGN | 0.62 ± 0.068
66 | TLGLTLSAFALT | 0.635 ± 0.043
67 | TLLAALIRFDAV | 0.691 ± 0.041
68 | TLLAPPAPTPAG | 0.684 ± 0.036
69 | TLLPPACFPTPP | 0.717 ± 0.017
70 | TLPARPSVPLPP | 0.629 ± 0.06
71 | TLPSPPSPSPRP | 0.679 ± 0.085
72 | TLQKKLTVNTKK | 0.738 ± 0.11
73 | TLRPKASPPAAL | 0.642 ± 0.021
74 | TLRTPGFSSSLH | 0.721 ± 0.025
75 | TLSPPLPPPSPS | 0.66129 ± 0.00029

Row | Sequence | protein stability index
76 | TLSSLVGACLYV | 0.614 ± 0.038
77 | TNGVNHIDAHGQ | 0.645 ± 0.018
78 | TNKKEPTMTRKK | 0.72528 ± 0.00042
79 | TNNLRLKVIGPK | 0.653 ± 0.021
80 | TNQITRHELTTY | 0.599 ± 0.043
81 | TNRNGQQRWEKG | 0.64 ± 0.0078
82 | TNRRSRLQVSSN | 0.635 ± 0.08
83 | TPAMPRNPTDDS | 0.651 ± 0.0068
84 | TPAPLLPRRTPP | 0.734 ± 0.073
85 | TPCSRMRPSLLF | 0.709 ± 0.11
86 | TPKTTGRPCDRT | 0.69 ± 0.0098
87 | TPLNPDSLDRPT | 0.657 ± 0.0097
88 | TPLNPLYCPPTP | 0.6384 ± 0.0061
89 | TPLSPPALPPPS | 0.659 ± 0.074
90 | TPLVLTLLTRRP | 0.709 ± 0.054
91 | TPPACTRIPPAN | 0.777 ± 0.12
92 | TPPLPPPPPPIH | 0.7413 ± 0.0029
93 | TPPPPAPSPPPP | 0.761 ± 0.059
94 | TPPPSLPPPPPP | 0.627 ± 0.07
95 | TPPRHTRTSQTV | 0.648 ± 0.0083
96 | TPRPRRNCGPGP | 0.717 ± 0.2
97 | TPSAPPPTHPYP | 0.684 ± 0.036
98 | TPSPPTLHPPPP | 0.691 ± 0.023
99 | TPSRLPPPLRSP | 0.703 ± 0.004
100 | TPTRPLSSALRL | 0.697 ± 0.05

Row | Sequence | protein stability index
101 | TPVAPGLSPPPL | 0.659 ± 0.066
102 | TQKKQKRKDQQR | 0.654 ± 0.01
103 | TQPDLAPPLPRS | 0.65 ± 0.017
104 | TQRLPTPPSIPL | 0.672 ± 0.017
105 | TQSSADCFTLDA | 0.719 ± 0.052
106 | TQYMRVVQAKPD | 0.659 ± 0.055
107 | TRDTEKTGRREP | 0.715 ± 0.0013
108 | TRFLRCACCFVC | 0.565 ± 0.036
109 | TRGSRGARGGGW | 0.716 ± 0.012
110 | TRKFATPRITVV | 0.6939 ± 0.0038
111 | TRKQSVIRIRMR | 0.653 ± 0.0082
112 | TRLAGINGLLSA | 0.689 ± 0.022
113 | TRLDLIDSLRHL | 0.731 ± 0.044
114 | TRLLPQRPLGGV | 0.717 ± 0.046
115 | TRMPTRRNEQIY | 0.683 ± 0.047
116 | TRMRWCGSGVKN | 0.809 ± 0.067
117 | TRPLIRRRHWID | 0.697 ± 0.025
118 | TRPSRRPPRPSS | 0.753 ± 0.22
119 | TRPTPTRADCFG | 0.685 ± 0.026
120 | TRQRSDRPRAPR | 0.6523 ± 0.00075
121 | TRRAAARAVSAR | 0.7 ± 0.066
122 | TRRFGSIINWVG | 0.59 ± 0.065
123 | TRRGPAGNKPRL | 0.749 ± 0.0092
124 | TRSADGFLGVMV | 0.739 ± 0.0092
125 | TRSDILGAERWG | 0.6794 ± 0.0033

Row | Sequence | protein stability index
126 | TRSQTASRSPTG | 0.672 ± 0.017
127 | TRTELGKRWIRR | 0.697 ± 0.061
128 | TRYKSMRAGVAG | 0.674 ± 0.067
129 | TSAEYKIETIFT | 0.688 ± 0.036
130 | TSAPPPPPPPPP | 0.608 ± 0.021
131 | TSAPRGNGKPEQ | 0.678 ± 0.016
132 | TSCPPPLAPSYD | 0.6909 ± 0.0045
133 | TSDPFGRPPETN | 0.643 ± 0.1
134 | TSGTPSRTHTLR | 0.612 ± 0.025
135 | TSLAPLPAPLRR | 0.725 ± 0.031
136 | TSPPPPSPPAHH | 0.625 ± 0.024
137 | TSPPPPSPPPPP | 0.785 ± 0.13
138 | TSSEREGHYCVR | 0.693 ± 0.034
139 | TSTTRRGPRSRF | 0.8168 ± 0.0029
140 | TTEESGGEGEGG | 0.664 ± 0.014
141 | TTKRQKRKKKQR | 0.633 ± 0.015
142 | TTLATVLRTFPG | 0.724 ± 0.031
143 | TTRALEAPARPN | 0.6518 ± 0.0054
144 | TTRHPRLHYIDP | 0.674 ± 0.019
145 | TTTRSDALPRGG | 0.713 ± 0.024
146 | TTTYQLSQTITI | 0.646 ± 0.041
